T1: 6his-SEPT9 (human, UniProt Q9UHD8 2-586)
T1 construct: SEPT9 isoform 1 (SEPT9_i1), human; PCR amplified from the GFP-SEPT9_i1 plasmid and cloned into the in-house plasmid pES; The forward primer reads ENLYFQG (a TEV site, surmised) followed by KKSYSGG, i.e. SEPT9 from its second codon; the reverse primer ends with PEAPEM and stop codons; also called 6his-tagged SEPT9; 6his tagged SEPT9; source: E. coli, purified (IMAC, approx. 70% purity; desalted …)
T1 sequence (looked up): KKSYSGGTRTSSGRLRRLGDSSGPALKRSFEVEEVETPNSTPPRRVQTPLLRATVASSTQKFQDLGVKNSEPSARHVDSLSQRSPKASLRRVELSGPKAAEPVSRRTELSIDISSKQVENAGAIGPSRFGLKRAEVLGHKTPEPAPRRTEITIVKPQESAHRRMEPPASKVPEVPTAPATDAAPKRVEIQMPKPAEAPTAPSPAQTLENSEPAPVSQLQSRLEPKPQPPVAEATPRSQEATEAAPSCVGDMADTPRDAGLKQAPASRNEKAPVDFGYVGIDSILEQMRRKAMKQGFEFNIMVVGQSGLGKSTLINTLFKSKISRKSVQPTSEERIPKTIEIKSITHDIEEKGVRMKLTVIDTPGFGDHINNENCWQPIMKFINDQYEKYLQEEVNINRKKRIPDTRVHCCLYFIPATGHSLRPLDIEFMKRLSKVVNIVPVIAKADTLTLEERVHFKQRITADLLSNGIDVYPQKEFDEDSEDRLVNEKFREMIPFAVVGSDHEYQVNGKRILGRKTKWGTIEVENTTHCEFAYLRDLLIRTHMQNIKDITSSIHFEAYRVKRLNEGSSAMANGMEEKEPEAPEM


Target: T1, 6his-SEPT9
Assay: pull-down; GST fusion proteins immobilized on Glutathione Sepharose from the crude extract, incubated with 2 µM 6his-SEPT9 for 1 h in PBS; Western blot with anti-6his and anti-GST
Settings: both partners purified

binding result	Binder
binds	GST-MYO1C_(809-1063) (domain or fragment, human, UniProt O00159 809-1063, looked up, Unconventional myosin-Ic (MYO1C), C-terminal tail fragment, amino acids 809-1063, amplified from cDNA of 1306 fibroblast mRNA; Cloned in pGEX2T; also called C-terminal tail fragment of MYO1C; source: E. coli, immobilized on Glutathione Sepharose from the crude extract; not shown: GST, N-terminal, kept) LDHVRTSFLLNLRRQLPQNVLDTSWPTPPPALREASELLRELCIKNMVWKYCRSISPEWKQQLQQKAVASEIFKGKKDNYPQSVPRLFISTRLGTDEISPRVLQALGSEPIQYAVPVVKYDRKGYKPRSRQLLLTPNAVVIVEDAKVKQRIDYANLTGISVSSLSDSLFVLHVQRADNKQKGDVVLQSDHVIETLTKTALSANRVNSININQGSITFAGGPGRDGTIDFTPGSELLITKAKNGHLAVVAPRLNSR
binds	GST-MYO6_(835-1294) (domain or fragment, UniProt Q9UM54 835-1294, looked up, Cloned in pGEX2T; also called C-terminal tail fragment of MYO6; source: E. coli, immobilized on Glutathione Sepharose from the crude extract; not shown: GST, N-terminal, kept) PRIDGLVKVGTLKKRLDKFNEVVSVLKDGKPEMNKQIKNLEISIDTLMAKIKSTMMTQEQIQKEYDALVKSSEELLSALQKKKQQEEEAERLRRIQEEMEKERKRREEDEKRRRKEEEERRMKLEMEAKRKQEEEERKKREDDEKRIQAEVEAQLARQKEEESQQQAVLEQERRDRELALRIAQSEAELISDEAQADLALRRSLDSYPVSKNDGTRPKMTPEQMAKEMSEFLSRGPAVLATKAAAGTKKYDLSKWKYAELRDTINTSCDIELLAACREEFHRRLKVYHAWKSKNKKRNTETEQRAPKSVTDYDFAPFLNNSPQQNPAAQIPARQREIEMNRQQRFFRIPFIRPADQYKDPQSKKKGWWYAHFDGPWIARQMELHPDKPPILLVAGKDDMEMCELNLEETGLTRKRGAEILPRQFEEIWERCGGIQYLQNAIESRQARPTYATAMLQSLLK
